Assay [1] concerns the target partially purified 17-1A antigen (isolated from SW116 cells) (human) (UniProt P16422). The experiment in a line: cold murine 17-1A competing with 125I murine 17-1A on plates coated with partially purified 17-1A antigen; 50% binding value.
Assay [2] shares this target. The experiment in a line: competition with 125I murine 17-1A on plates coated with partially purified 17-1A antigen; 50% binding value.

Consider murine monoclonal antibody 17-1A, for which the IC50 (commonly the concentration at which inhibition is half-maximal) in assay [1] stood at 0.16 µg/mL.
With “G1K 17-1A Chimeric IgG (from UniProt P01857 1-330) (antibody)”, the IC50 in assay [2] was 0.3 µg/mL.

Values taken from EP0256654B1.
